Assay results from article PMC9044722.

Key:
[1] = target: His-CRM1 recombinant protein (UniProt O14980); assay: SPR; without TLNC1; conditions: natural protein; chains chain; remark: other sources report otherwise
[2] = target: His-CRM1 recombinant protein (UniProt O14980); assay: SPR; with TLNC1 (lncRNA); conditions: natural protein; chains chain; remark: other sources report otherwise

Sequence of UniProt O14980 (O14980 whole entry): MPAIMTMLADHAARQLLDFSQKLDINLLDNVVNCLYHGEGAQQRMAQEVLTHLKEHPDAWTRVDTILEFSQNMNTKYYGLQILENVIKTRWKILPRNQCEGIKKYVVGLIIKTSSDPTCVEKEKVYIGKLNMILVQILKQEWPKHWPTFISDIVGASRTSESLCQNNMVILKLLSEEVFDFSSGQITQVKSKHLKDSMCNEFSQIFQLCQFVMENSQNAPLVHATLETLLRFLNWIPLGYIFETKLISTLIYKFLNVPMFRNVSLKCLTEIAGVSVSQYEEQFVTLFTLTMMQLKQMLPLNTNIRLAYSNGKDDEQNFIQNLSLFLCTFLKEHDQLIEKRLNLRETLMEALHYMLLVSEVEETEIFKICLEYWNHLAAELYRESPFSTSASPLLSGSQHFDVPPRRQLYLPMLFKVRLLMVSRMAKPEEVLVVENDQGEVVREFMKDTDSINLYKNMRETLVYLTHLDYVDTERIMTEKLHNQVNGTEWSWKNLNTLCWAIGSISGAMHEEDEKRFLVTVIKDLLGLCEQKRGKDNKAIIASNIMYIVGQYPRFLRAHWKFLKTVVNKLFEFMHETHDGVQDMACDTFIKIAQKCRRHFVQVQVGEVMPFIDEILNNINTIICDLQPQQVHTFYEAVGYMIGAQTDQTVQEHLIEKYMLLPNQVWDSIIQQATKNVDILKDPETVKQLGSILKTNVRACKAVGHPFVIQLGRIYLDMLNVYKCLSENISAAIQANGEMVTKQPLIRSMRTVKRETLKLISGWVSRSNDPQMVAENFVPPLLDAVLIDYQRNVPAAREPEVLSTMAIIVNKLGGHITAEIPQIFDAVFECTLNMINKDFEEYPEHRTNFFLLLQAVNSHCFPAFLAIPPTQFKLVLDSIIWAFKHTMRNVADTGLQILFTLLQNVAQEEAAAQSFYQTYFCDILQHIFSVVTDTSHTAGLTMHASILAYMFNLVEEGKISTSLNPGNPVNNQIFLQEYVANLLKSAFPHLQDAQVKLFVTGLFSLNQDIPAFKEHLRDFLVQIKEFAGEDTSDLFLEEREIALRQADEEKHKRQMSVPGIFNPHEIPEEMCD

Kd [1]: 181 nM | Kd [2]: 31.6 nM
Substance: His-TPR recombinant protein, P12270 1-2363
